# According to publication PMC9600919:
# Target: N-terminally 3× FLAG-tagged IglD from Francisella novicida (Francisella novicida) (UniProt Q7X3J2)
# Test: cryo-EM structure
substance,measurement,value
N-terminally 3× FLAG-tagged IglD from Francisella novicida (from UniProt Q7X3J2 1-398) (natural protein),stoichiometry N,3
